Experiment: soluble on expression in E. coli; label from the status in PepcDB or PDB records

| Sequence | soluble on expression in E. coli |
| --- | --- |
| MSLRDLLLIDHPLCQAVFSRQGAQLLHFQPQGERPLLWCAGEWPALSSAPVRGGIPVCWPWFGSHPNGSEWPQQGWARQREWRLLDAYADESKVVVSWQLDLEDWHVRLDARLGQRLELELCSYHEEDDDCLFSFALQPYWRVGALSRVVVHGMELESARGQRGASRIPGTWIPRGAVKQVLYHPGSLVLEDGGWNRRLRIDKNVSAGSVIWHPGSRPVEQVEPGEAERFLCIGAAGYRPGGLILAPGERMRLSLAAGLQEGHHHHHH | not soluble |
| GSYAEGQRKRRNTIHEFKKSAKTTLIKIDPALKIKTKKVNTADQCANRCTRNKGLPFTCKAFVFDKARKQCLWFPFNSMSSGVKKEFGHEFDLYENKDYIRNCIIGEGESYKGTVSITKSGIKCQPWSSMIPHEHSFLPSSYRGKDLQENYCRNPRGEEGGPWCFTSNPEVRYEVCDIPQCSEVECMTANGESYRGLMDHTESGKICQRWDHQTPHRHKFLPERYPDKGFDDNYCRNPDGQPRPWCYTLDPHTRWEYCAIKTCA | soluble |
| MSLIVLKFGGSSIKYDFEEATNLALSLFEDDAVIVVVSAIKGITDKLILYSQTLDKTIATKIASEYVSFAKSHGIDPVILKPYLDELFNLPDLPEEALRDYILSLGEVLSAVIFSASIGGKFVPSWDIFEAEGNFGNAFIDIKSSKKKFKRVFEVLEEGYIPVIPGFTAGKDGYILTLGRGGSDYSGVAAGVLGKAKLVAIMSDVEGIYTADPKLVPSARLIPYVSYDEIIISSKHGMRALQWKAAELAKEYKIPVLFGRTRNWRMGTLMSERSSGMPLMTYKDGLLLVNVTEEIKYPIIAEGPFWKLYKVSQEEGIHLMRELHTKLFQPSFIQYSVYKSSENGQKTQEFNEKISIEQGENRKIYYSEEEVNLPGEGHHHHHH | soluble |
| MFVDQVKISLKAGDGGNGITAYRREKYVPFGGPAGGDGGKGASVVFEVDEGLRTLLDFRYQRHFKASKGENGQSSNMHGKNAEDLVLKVPPGTIIKNVETDEVLADLVEDGQRAVVAKGGRGGRGNSRFATPRNPAPDFSEKGEPGEELDVSLELKLLADVGLVGFPSVGKSTLLSIVSKAKPKIGAYHFTTIKPNLGVVSTPDQRSFVMADLPGLIEGASDGVGLGHQFLRHVERTKVIVHMIDMSGSEGREPIEDYKVINQELAAYEQRLEDRPQIVVANKMDLPESQDNLNLFKEEIGEDVPVIPVSTITRDNIDQLLYAIADKLEEYKDVDITVEEEESVGINRVLYKHTPSQDKFTISRDDDGAYVVSGNAIERMFKMTDFNSDPAVRRFARQMRSMGIDDALRERGCKNGDIVRILGGEFEFVE | not soluble |
| MFVRVMKIAQNKKIVTVYPTTTIRKALMTMNENKYRRLPVVNAGNNKVVGIITSMDIVDFMGGGSKYNLIREKHERNFLAAINEPVREIMEENVITLKENADIDEAIETFLTKNVGGAPIVNDENQLISLITERDVIRALLDKIDENEVIDDYITRDVIVATPGERLKDVARTMVRNGFRRLPVVSEGRLVGIITSTDFIKLLGSDWAFNHMQTGNVREITNVRMEEIMKRDVITAKEGDKLKKIAEIMVTNDIGALPVVDENLRIKGIITEKDVLKYFA | soluble |
| MGSSHHHHHHSSGLVPRGSHMKKRQLGTSDLHVSELGFGCMSLGTDETKARRIMDEVLELGINYLDTADLYNQGLNEQFVGKALKGRRQDIILATKVGNRFEQGKEGWWWDPSKAYIKEAVKDSLRRLQTDYIDLYQLHGGTIDDPIDETIEAFEELKQEGVIRYYGISSIRPNVIKEYLKRSNIVSIMMQYSILDRRPEEWFPLIQEHGVSVVVRGPVARGLLSRRPLPEGEGYLNYRYDELKLLRESLPTDRPLHELALQYCLAHDVVATVAAGASSIDQVKANVQAVEATPLTAEERQHIQKLAKAAVYEQHRE | soluble |
| MRKLVIPKYYGRPSIGLALFGCTNRPFYHVCVFPDRALGRRYEGNILEQVGTFDPLPNQKNEKLVALNFGRLKYWIGERNAHISVPVLELLGERRNCLSGLFPIHPKSFIRAKDNRALIADQQLKVAAEAAEAEKVAQEQASTGAAATSHPQ | not soluble |
| MHLTCKNGEIKTIMWSNISEQFPVTGYSYWAVGVDITHLKAIEEQLKQQTSELELIFKALPDLCFLTEDDGTIIDYKAGSPTKFYVPAEAFMGKKFYEVLPTSVAQQFQEAINQVKEKGTNVIVEYPLTLNGSIDFFEARCLPLLHDKIMIIVRDITERKKTEELLNKSDTLAAIGQLAAGVAHEVRNPLTVIKGFIQLFQINKEDQERYFDLMLSEIERIEAILQEFLSIAKTDEINTEKKNIYQIFKNVVSLMNTKAIMTNIQVELFTGDKDIIIECSENQLKQVFINILQNSIEAMPNGGGISIHIKEINDDGVIIHVIDEGIGIPEERIKRLGEPFYSTKEKGTGIGLMLSYKIIESHQGTISIRSEVGVGTTVTIYLPKVLNKQSLSNCDDKCIAIRTSSNS | not soluble |
| MAHHHHHHMYDDVEVRRREEARQHTAASLIQRRWREHAERRSLEQDAAPLRGTGGNGVLLVASDAFGDVVGRRGGETDEALRPLKSDGFDELAQTVQTPEEKRRACVEEYRALLAKRKALLENNLVYQQLLSRHYAEQRRRNGEDEVAQLTTPDAEAAYWALVRQVAEERQRVAARSTALKKDLELQRQRYEPIMEEAATQERNFQQYIQELAASVRFMRSNRPIPTEAIEKYIELEAVQRSAIHASRVRYLQLKNRLLRLRRVAKGGAALSSSAPTATAAATGQDGEESNAANHHMFLIDFEQLKVENTSLNEKIEERSEEVLKLRNKVTNTIHIATHVREKLDCVRAENAELRQHVASTDEELGGARDQLAKSKRRRDAHLRANTRMKERMPLVGSRDLLMDYEKRKAVIYNYRTRLVQLTDRHKELTDSIKKEESTIVSLQHELSHYPK | not soluble |
| MSLGSFTDVPANSQFYTEISWLASQGISTGWVEANGTSTYRPALAVNRDAMAAFMYRLAGSPAYTPPGTSPFIDVTPQTQFYKEIAWLASKGISTGWDEGNGAKSYRPLQTVNRDAMAAFMYRFAGSPAYNAPGASLFTDVVPQTQFYKEINWLASMNISTGWVEGNGTRTFRPVQSVNRDAMAAFMYRYNNAFPAEGHHHHHH | not soluble |
| MGSDKIHHHHHHMPPAIAPRFIYCRVCDACGFAARRSRFSGHAASGHRAAASAFLRPRMNVTTSDDCIGVLPDHPWAKHFIVLGYRDGAFSTIPNNFFRNWLDEEAQVGTFHIGRCSGLGVGSIAKYDQGLQKLVIGKNVAGGMRLRFLLNGQHEMRTISTSLFSIYGNGLENAPMPQYPDTVIHNDVWIGDEALFLGGSQIESGCVIGARAVIPPNFRTEAYGIYAGSPARLVRFRFTEKVREKLLQLAWWDMPLDWIKRNNHAFLVDLTANEGRALDTLAALQESKDNATGEAGRQTAAATPV | not soluble |
| MGSDKIHHHHHHMNERLRQGLVAAEGPLSGEVIKDVECVAGGCIHQAWCLQLKGGRQLFAKTGGADALPMLKVEVEGLKALKAWVDPGVLEVPEPLAFDQVCGEAVLLLPWLDFRAGNQASLGRGLALLHRASAAENPGRFGWPVDGFIGAGSQPGGWREQWGDAFVTLRLRPQLREAARWGLDLVDVEPILAALIPWLDRHQPSPSLVHGDLWSGNANVLSDGRGVLLDPATWWADREVDLAMTQLFGGFSQDFYIGYENVWPLPADASQRVEVYNLYHLINHANLFGGSYRNQSQAILNRLASWLLT | not soluble |
| MGCTLSAEDKAAVERSKMIDRNLREDGERSRRELKLLLLGTGESGKSTFIKQMRIIHGSGYSDEDKRGFTKLVYQNIFTAMQAMIRAMDTLKIPYKYEHNKAHAQLVREVDVEKVSAFENPYVDAIKSLWNDPGIQECYDRRREYQLSDSTKYYLNDLDRVADPSYLPTQQDVLRVRVPTTGIIEYPFDLQSVIFRMVDVGGQRSERRKWIHCFENVTSIMFLVALSEYDQVLVESDNENRMEESKALFRTIITYPWFQNSSVILFLNKKDLLEEKIMYSHLVDYFPEYDGPQRDAQAAREFILKMFVDLNPDSDKIIYSHFTCATDTENIRFVFAAVKDTILQLNLKEYNLV | soluble |
| GSPAAAPPTLPPYFMKGSIIQLANGELKKVEDLKTEDFIQSAEISNDLKIDSSTVERIEDSHSPGVAVIQFAVGEHRAQVSVEVLVEYPFFVFGQGWSSCCPERTSQLFDLPCSKLSVGDVCISLTLKNLKNG | soluble |
| MSLAKRIVGSTPKQDGFRMPGEFEPQEKVWMIWPERPDNWRDGGKPVQEAFTNVAKAISQFTPMNVVVSQQQFQNCRRQLPPEITVYEMSNNDAWVRDCGPSFVINDHGEIRGVDWTFNAWGGLVDGLYFPWDQDDLVAQKICEIEHVDSYRTDDFVLEGGSFHVDGQGTVLTTEMCLLSEGRNPQLSKEAIEQKLCDYLNVEKVLWLGDGIDPEETNGHVDDVACFIAPGEVACIYTEDQNSPFYEAAQDAYQRLLKMTDAKGRQLKVHKLCCPVKNVTIKGSFKIDFVEGTMPREDGDICIASYMNFLITNDGVIVPQYGDENDHLALEQVQTMFPDKKIVGVNTVEVVYGGGNIHCITQQEPKREGGSHHHHHH | soluble |
| MKEKTPFKNEKEFHDMVKKTKKGTFSGWYIVNPENNSVEFSGNFNRQFKLNKPVIPVNTEYVTRKEFNEYKDSNDQRLIKIETTLAAQGEQIRIQGEQIKELQIEQKAQSETLKLILQTLQKMSDRLDKMDVRLDKLESK | soluble |
| MNSLVRRSAQQLSLWRTYCIKHNASEAASPGRNAGRPNYEEFIGRHQRQAQCSIVVQVSSEKSYEELYNYCSSFGSIMGAHHYCVRQDETLHYILLEYATSDEAAAAIGAGVTNGELSGVPVRSPFLWFRAAGGGRRSPKLVANTAPALLSLDGTRQVDQRHLLGLLRGAADIEEQVQQLYEHTRLNELGIRMRFLAALQVQQAIAGMFPAAQAQPFGSSVNGFGRMGCDLDLILRFDSDMGAKIPLEAAVPSRLVYHTKENLSNGRSQTQRHMECFGDMLHLFLPGVCHVRRILQARVPIIKYHHEHLDLEVDLSMSNLTGFYMSELLYMFGEMDPRVRPLTFTIRRWAQTCGLTNPSPGRWISNFSLTCLVMFFLQQLRQPILPTIGALAKAAEPGDSRVTEDGINCTFTRNVDRLGFRSRNQSSLSELLLQFFEFYSQFDFHNRAISLNEGKPLSKPDHSAMYIVNPLEQLLNVSKNVSLEECERLRIEVRNAAWVLESEVENASVPEGDGQELSCGLLNLFKHPEKAVIRPNMFFKPRMVEVSDLFEQKEAGATSSSTPPTPAITYKSASVRQQVQSIKAATRSELKQLRGSGSSVPTSSPNNRRRS | not soluble |
| MGAASCEDEELEFKLVFGEEKEAPPLGAGGLGEELDSEDAPPCCRLALGEPPPYGAAPIGIPRPPPPRPGMHSPPPRPAPSPGTWESQPARSVRLGGPGGGAGGAGGGRVLECPSIRITSISPTPEPPAALEDNPDAWGDGSPRDYPPPEGFGGYREAGAQGGGAFFSPSPGSSSLSSWSFFSDASDEAALYAACDEVESELNEAASRFGLGSPLPSPRASPRPWTPEDPWSLYGPSPGGRGPEDSWLLLSAPGPTPASPRPASPCGKRRYSSSGTPSSASPALSRRGSLGEEGSEPPPPPPLPLARDPGSPGPFDYVGAPPAESIPQKTRRTSSEQAVALPRSEEPASCNGKLPLGAEESVAPPGGSRKEVAGMDYLAVPSPLAWSKARIGGHSPIFRTSALPPLDWPLPSQYEQLELRIEVQPRAHHRAHYETEGSRGAVKAAPGGHPVVKLLGYSEKPLTLQMFIGTADERNLRPHAFYQVHRITGKMVATASYEAVVSGTKVLEMTLLPENNMAANIDCAGILKLRNSDIELRKGETDIGRKNTRVRLVFRVHVPQGGGKVVSVQAASVPIECSQRSAQELPQVEAYSPSACSVRGGEELVLTGSNFLPDSKVVFIERGPDGKLQWEEEATVNRLQSNEVTLTLTVPEYSNKRVSRPVQVYFYVSNGRRKRSPTQSFRFLPVICKEEPLPDSSLRGFPSASATPFGTDMDFSPPRPPYPSYPHEDPACETPYLSEGFGYGMPPLYPQTGPPPSYRPGLRMFPETRGTT | soluble |
| MNDKEKIYNQLHHDAPIQIMPAPENLFVEYIEDGEVWYSPVVCIALSKAHNINFYDSDDVGCIDKAATCSIKKFNPETGEFEQFSKMAQKEITQ | not soluble |

Source: the DeepSol protein solubility set
